The target in this assay is T1, Synaptotagmin Like 1 (SYTL1), on the HuProt v3.1 human proteome array (human, UniProt Q8IYJ3 1-562).
T1 construct: Synaptotagmin Like 1 (SYTL1), human; as arrayed on HuProt v3.1; source: spotted on the HuProt v3.1 human proteome array (CDI NextGen Proteomics)
T1 sequence (looked up): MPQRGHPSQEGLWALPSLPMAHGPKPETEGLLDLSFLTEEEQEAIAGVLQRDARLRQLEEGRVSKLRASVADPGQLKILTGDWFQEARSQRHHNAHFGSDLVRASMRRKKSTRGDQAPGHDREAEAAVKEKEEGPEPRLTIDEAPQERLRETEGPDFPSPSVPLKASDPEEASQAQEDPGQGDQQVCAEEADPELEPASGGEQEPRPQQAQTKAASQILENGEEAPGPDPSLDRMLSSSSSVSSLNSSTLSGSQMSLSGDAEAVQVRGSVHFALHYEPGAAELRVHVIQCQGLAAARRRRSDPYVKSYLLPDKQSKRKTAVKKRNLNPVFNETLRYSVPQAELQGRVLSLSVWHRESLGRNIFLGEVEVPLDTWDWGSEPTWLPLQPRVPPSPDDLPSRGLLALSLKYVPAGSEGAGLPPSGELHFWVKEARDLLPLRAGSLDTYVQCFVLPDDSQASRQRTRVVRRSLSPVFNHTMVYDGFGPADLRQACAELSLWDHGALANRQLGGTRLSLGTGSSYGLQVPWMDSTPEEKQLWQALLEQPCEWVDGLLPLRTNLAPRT
Description: peptide or protein array; HuProt v3.1 human proteome array probed with recombinant AKT2 at 1 ug/mL; GenePix analysis; only interactions with a Z-score above 6 considered. The following applies: both partners purified.

B1: recombinant AKT2 (RAC-beta serine/threonine-protein kinase) (enzyme, human, UniProt P31751 1-481, looked up)
chain: MNEVSVIKEGWLHKRGEYIKTWRPRYFLLKSDGSFIGYKERPEAPDQTLPPLNNFSVAECQLMKTERPRPNTFVIRCLQWTTVIERTFHVDSPDEREEWMRAIQMVANSLKQRAPGEDPMDYKCGSPSDSSTTEEMEVAVSKARAKVTMNDFDYLKLLGKGTFGKVILVREKATGRYYAMKILRKEVIIAKDEVAHTVTESRVLQNTRHPFLTALKYAFQTHDRLCFVMEYANGGELFFHLSRERVFTEERARFYGAEIVSALEYLHSRDVVYRDIKLENLMLDKDGHIKITDFGLCKEGISDGATMKTFCGTPEYLAPEVLEDNDYGRAVDWWGLGVVMYEMMCGRLPFYNQDHERLFELILMEEIRFPRTLSPEAKSLLAGLLKKDPKQRLGGGPSDAKEVMEHRFFLSINWQDVVQKKLLPPFKPQVTSEVDTRYFDDEFTAQSITITPPDRYDSLGLLELDQRTHFPQFSYSASIRE
notes: AKT2, RAC-beta serine/threonine-protein kinase; recombinant protein used as the probe on the HuProt v3.1 array; source: recombinant
B1: the binding result is given as “binds”.
